# The nanobody polyreactivity screen of Harvey et al. (2022)
# Assay: yeast display, Sf9 membrane polyspecificity reagent, FACS + sequencing; frameworks hold sequencing errors
# In short: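 Genes from sorted yeast were amplified by colony PCR, read by MiSeq 2 × 250 sequencing and filtered on CDR length. These cells carried a synthetic nanobody library in Saccharomyces cerevisiae BJ5465 and were sorted by FACS into low and high (top ~1%) gates on anti-HA and streptavidin fluorescence. Polyreactivity is labelled according to the gate of origin.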
row,Sequence,polyreactivity (PSR sort gate)
1,QVQLVESGGGLVQAGGSLRLSCAASGGTIVWNAMGWYRQAPGKEREFVAAITSSGGSTYYADSVKGRFTITRDYAKNTVYLQINSLKPEDTAVDYCNVDTHSSYEFNSWGQGTQVTVSS,low polyreactivity
2,QVQLVESGGGLVQAGGSLGLSCAASGIILCYYDMGWYRQAPGKERELVAAITYSGSSTYYADSVKGRFTISRDNAKNTVYLLMNSLKPEDTAVYYCNAGWFYGAIWNYDYWGQGTKVTVSS,low polyreactivity
3,QVNLVYSAGGLVQAGGILRLSCTASGCTFYYNAMGWYRQEPGKVREVVARISRSGGSTYEDSVKGRFTISRDNAKNTVYLPMNSLKPEDTAVYYCNADAYGTPEFTSYAVSYDLWGQGTQVTVSS,low polyreactivity
4,QVQLVESGGGLVQAGGSLRLSCAASGRTFWVYAMGRYRQAPGKEREFVAAISSNGDRTYYADSVKGRFTISRDNAKNTVYLQMNSLKPEDTAVYYCNSRKQYRYLADRMDYWGQGTQVTVSS,high polyreactivity
5,QVQLVESGGGLVQAGGSLRLSCAASGSTRRYVMGWYRQAPWKERELVAAISYSGGSTYYADSVKGRFTISRDNAKNTVYLQMNSLKPEDTAVYYCAADGYSGQYGGHMGYWGQGTQVTVSS,high polyreactivity
6,QVQLVESGGGLGQAGGSLRLSCAASGFTFRKYVMGWYRQAPGKERALVAAITSGGSTNYADSVKGRFTISRDNAKNTVYLQMNSVIPEDTAVYYCATVPGARVHYPTGDYWGQGTQVTVSS,high polyreactivity
7,QVHLVESGGGLVQAGGSLRLSCAASGFILPYYAMGWYRQAPGKERELVAAISRSGGGTYYADSVKGRFTISRDNAKNTVYLQMNSLKPEDTAVYYCAADYSAYEYEYWGQGTQVTVSS,high polyreactivity
8,QVQLVESGGGLVQAGGSLRLSCAASGRTIYYYAMGWYRQAPGKERELVAAISRSGSSTFYADSVKGRFTISRDNAKNTVYLQMNSLKPEDTAVYYCAADDYSRRVYFFFGAYDYWGQGTQVTVSS,high polyreactivity
9,QVQLVESGGGLVQAGGSLRLSCAASGSIFFFYVMGWYRPAPGKERELVAAITYSGGSTFYADSVKGRFTISRDNAKNTVYLQMNSLKPEDTAVYYCAADYGQWTPLDPYNHWGQGTQVTVSS,low polyreactivity
10,QVQLVESGGGLVQAGGSLRLSCAASGRIFGYYAMGWYRQAPGKERELVAAIRSSGGSTYYADSVKGRFTISRDNAKNTVYLQMNSLKPEDTAVYYCNKGAAWRPFFGPYYNYEYWGQGTQVTVSS,high polyreactivity
11,QVQLVESGGGLVQAGGSLRLSCAASGSLFSTYAMGWYRPAPGKERELVAAIPTSGGRTYYADSVKGRFTISRDNAKNTVYLQMNSLKPEDTAVYDCNAVRGGRYGLDYWGQGTQVTVSS,high polyreactivity
12,QVQLVESGGGLFQAGGSLRLSCAASGSIFTRYAMGWYRQAPGKERELVAAISNRGGRTYYADSVKGRFTISRDNAKNTVYLQMNILKPEDTAVYYCNAATTRRIPQSDNYWGQGTQVTVSS,high polyreactivity
13,QVQLVESGGGLVQAGGSLRLSSAASGRTFYSNAMGWYRQAPGKERELVAGISKSGGITYYADSVKGRFTISRDNAKNTVYLQMNRLKPEDTAVYYCAARRRGRFYYWGQGTQVTVSS,high polyreactivity
14,QVQLVESGGGLVQAGGSLRLSCAASGRTLYNYAKGWYRQAPGKERELDASITWSGGSTYYADSVKGRFTISRDYANNTVYLQMNSLKPEDTAVYYCAAESSPGTFVRYGYRRYYYWGQGTQVTVSS,low polyreactivity
15,QVQLVESGGGLVQAGGSLRLSCAASGRTFYYYTMGWYRQAPGKERELVAAISVSGGSTYYADSVKGRFTISRDNAKNTVYLQMNSLKPEDTAVYYCAAGDGWGRRYYWGQGTQVTVSS,high polyreactivity
16,QVQLVESGGGLVQAGGSLSLSCAASGFTFGSNDMGWYRQAPGKERELVAAIDGSGDTYYADSVKGRFTISRDNAKNTVYLQMNSLKPEDTAVYYCARDDNPIYSGVTYDYWGQGTQVTVSS,low polyreactivity
17,QVQLVESGGGLVQAGGSLRLSCAASGRTIPNYAMGWTRQAPGKERELVAAISSSGDRTYYADSVKGRFTISRDNAKNTVYLQMNSLKPEDTAVYYCAADRGARGDYWGQGTQVTVSS,high polyreactivity
18,QVQLVESGRGLVQAGGSLRLSCAASGFTFYRYAMGWYRQAPGKERELVATISASGGSTYYADSVKGRFTISRDNAKNTVYLQMNSLKPVDTAVFYCARYIYRSAFDYWGQGTQVTVSS,high polyreactivity
19,QVQHVESGGGLVQAGGSLRLTCAATGFTFATYTMGWYRQAPGKERELFAAISSGGNTNYADSVKGRFTISRDNAKNTVYLQMNSLKPEDTAVYYCARGATLLQYYYWGVYEYDSWGQGTQVTVSS,low polyreactivity
20,QVQLVESGGGLVQAGGSLRLSCAASGRTFYWYVMGWYRQAPGKERELVAAITQTGSSTYYADSVKGRFTISRDNAKNTVYLQMNSLKPEDTAVYYCADRLSRNHYEVDYWGQGTQVTVSS,low polyreactivity
21,QVQLVESGGGLVQAGGSLRLSCAASGYTFFYYAMGWYRQAPGKERELVASISWNGGSTYYADSVKGRFTISRDNGKNTVYLQMNSLKPEDTAVYYCAADSPRPRLTSYGYIGGEYYYWGQGTQVTVSS,low polyreactivity
22,QVQLVESGGGLDQAGGSLRLICAASGRIFKWYAMGWYRQAPGKERELVATITWSGGSTYYADSVKGRFTISRDNAQNTVYLQMNSLKAEDTAVYYCNADTWLALPCFDYWGQGTQVTVSS,high polyreactivity

row,Sequence,polyreactivity (PSR sort gate)
1,QVQLVESGGGIVQAGGSLRLSCAASGSIFKRYAMGWYRQAPGKERELVAAISWSGGNTYYADSVKGRFTISRDNAKYTVYLQMNILKPEDTAVYYCNAGYSYFGPGRGRFRYYYWGQGTQVTVSS,high polyreactivity
2,QVQLVESGGGLVQAGGSIRLSCAASGITFYRNARGWYRQAPGKEMELVAAITWNGGRTYYADSVKGRFTISRDNAKNTVYLQMNSLKPEDTAVYYCAAAYPTYRHYYWGQGTQVTVSS,low polyreactivity
3,QVQLVESGGGLVQAGGSLRLSCAASGSTFYYYAMGWYRQAPGKERELVATISRSTARTFYADSVKGRFTISRDNAKNTVYLQMNSLKPEDTAVYYCAATSYVSVYPSYYRFGTYGYWGQGTQVTVSS,high polyreactivity
4,QVQLVESGGGLVQAGGSLRLSCAASGRIFTTYVMGWYRQAPGKERELVAAISARGSTYYADSVKGRFTISRDNAKNTVYLEMNSLKPEDTAVYYCAAGHRLPVYYGYPRATYNYWGQGTQVTVSS,low polyreactivity
5,QVQLVESAAGLVQAGGSLSLICAASGYIFATYAMGWYIQAPGTETELVAAITSGGITNYADSVKGRFTISRDNAKNTVYLQMNSLKPEDTAVYYCATGRRRYYFREYYYWGQGTQVTVSS,high polyreactivity
6,QVQLVESGGGLVQAGGSLRLSCAASGYIFEVNAMGWYRQAPGKERELVATIDTSSGSTNYADSVKGRFTISRDNAKNTVDLQMNSLKPEDTAVYYCAADDETVFLQDDYWGQGTQVTVSS,low polyreactivity
7,QVQLVESGGGLVQAGGSLRLSCAASGSTFDGNAMGWYRQAPGKERELVAAITWRDGSTSYADSVKGRFTISRDNAKNTVYLQMNSLKPEDTAVYYCAADYEVYQVASAFDYWGQGTQVTVSS,low polyreactivity
8,QVQLVESRGGLVQAGGSLRLSCAASGFIFNYYVMGRYRQAPGKERELVAGITKRGDRTYYADSVKGRFTISRDNAKNTVYLQMNSLKPEDTAVYYCAALARSFANSYGYWGQGTQVTVSS,high polyreactivity
9,QVQLVESGRGLVQAGGSLRLSCAASGLIFGRNAMGWYIQAPGKERECVAANTSGGSTYYADSVKGRFTISRDNAKNSVYLQMNSLKPEDTAVYYCAADVVDLYLLDYWGQGTQVTVSS,low polyreactivity
10,QVQLVESGGGLVQAGGSLRLSCAASGITFAYYAMGWYRQAPGKERELVAAITRRGSSTYYADSVKGRFTISRDNAKNTVYLQMNSLKPEDTAVYYCAAVAYGRERYDYWGQGTQVTVSS,high polyreactivity
11,QVQLVESGGGLVQAGGSLRLSCAASGSIFGFYAMGWYRQAPGKERELVAAITYSGGSTYADSVKGRFTISRDNAKNTVYLQMNSLKPEDTAVYYCAKDAELDITDAFYYWGQGTQVTVSS,low polyreactivity
12,QVQLVESGGGLVQAGGSLRLSCASSGRTFRRYAMGWYRQAPGKERELVAAITWSGGSTYYADSVKGRFTFSRDYGKNTVYLQMNSLKPADTAEYYCAVSPLYSTSYYGLRKGYYWGQGTQVTVSS,high polyreactivity
13,QVQLVESGGGLVQAGGSLRLSCAASGSIFNYNAMGWYRQAPGKERELVAAISWSGGSTYYADSVKGRFTISRDNAKNTVYLQMNSLKPEDTAVYYCAVATGLLYKSHGYWGQGTQVTVSS,low polyreactivity
14,QVQLVESGGGLVQAGGSLRLSCAASGSTFTGYAMGWYRPAPGKERELVAGITGSGGSTYYADSVKGRFTISRDNAKNTVYLQMNSLKPEDTAVYYCAAELYDYGDLYYSEYDYWGQGTQVTVSS,low polyreactivity
15,QVQLVESGGGLVQAGGSLRLSCAASGRIFIGNAMGWYRQAPGKERELVADISYSGGTTYYADSVKGRFTISRDNAKNTVYLQMNSLKPEDTAVYYCNKYDPRPVWQGWVWIEYYYWGQGTQVTVSS,low polyreactivity
16,QVQLVESGGGLVQAGGSLRLSCAASGRTFYSYAMGWYRQAPGKERELVAAISSGGTTYYADSVKGRFTISRDNAKNTVYLQMNSLKPEDTAVYYCATSRAWRYRSYYWGQGTQVTVSS,high polyreactivity
17,QVQLVESGGGLVQAGGSLRLSCAASGTFQYNAMGWYRQAPGKERELLAAITSGGSTNYADSVKGRFTISRDNAKNTVYLQMNSLKPEDTAVYYCAAVRRYRASRGSLYYYWGQGTQVTVSS,high polyreactivity
18,QVQRVESGGGLVQAGGSLRLSCAASGFTFYRYAMGWYRQAPGKEREFVAVINIRGSTTYYADSVKGRFTISRDNAKNTVYLQMNSLKPEDTAVYYCARRYRGPYYSLPRRKEFDYWGQGTQVTVSS,high polyreactivity
19,QVQLVESGGGLVQAGGSLRLSCAASGSTFTENTMGWYRQAPGKERELVAAITDSGGSTYYADSVKGRFTISRDNAKNTVYLQMNSLKPEDTAVYYCAADVQPDTRSTPEMDYWGQGTQVTVSS,low polyreactivity
20,QVHLEESGGGLVQAGGSLRLRSAATGRIFKRYAMGWYIQAPGKERDLVAAINWSTGGTYYADSVKGRFTISRDNAKNSVYLHMNSLKPVDTAVYSCAADGDAWFEYLDVEYYYWGQGTQVTVSS,low polyreactivity
21,QVQLVESGGGLVQAGGSLRLSCAASRSIFYINAMGWYRQEPGKEMELVAAITSDGSTYYADSVKGRFTISRDNAKNTVYLQMNSLKPEDTAVYYCAADLTSDQYLYYWYWFYSWGQGTQVTVSS,low polyreactivity
